Experiment [1] concerns the target SARS-CoV-2 spike protein (Hexapro S) (SARS-CoV-2).
Experiment [2] shares this target. Put plainly: dynamic light scattering.
Experiment [3] shares this target. Put plainly: other fluorescence titration.

As for “Burkholderia oklahomensis agglutinin (BOA) (natural protein)”, in experiment [1], the EC50, plaque reduction assay, SARS-CoV-2 Munich isolate in Vero E6 cells was determined as 9 nM. Besides, the lowest lectin concentration with a significant increase in hydrodynamic radius in experiment [2] was determined as 60 nM.

Turning to “SeTau-405 fluorescently labeled BOA (natural protein)”, in experiment [3], the half-saturation point fell in the range of 30 to 60 nM.

As to “Oscillatoria agardhii agglutinin (OAA) (natural protein)”, the lowest lectin concentration with a significant increase in hydrodynamic radius in experiment [2] came out at 125 nM.

Values taken from paper PMC10515186.
